Measured values published in the supplement of paper PMC10065799, “High-throughput profiling of sequence recognition by tyrosine kinases and SH2 domains using bacterial peptide display” (eLife, 2023).

What was measured:
AncSZ = assay: phosphorylation enrichment, bacterial display (enrichment ratio); higher = better substrate or ligand; peptides without Tyr show the background
EPHB1 = EPHB1 (UniProt P54762); assay: as above
EPHB2 = EPHB2 (UniProt P29323); assay: as above
FGFR1 = FGFR1 (UniProt P11362); assay: as above
Sequence of FGFR1 (P11362 whole entry, looked up): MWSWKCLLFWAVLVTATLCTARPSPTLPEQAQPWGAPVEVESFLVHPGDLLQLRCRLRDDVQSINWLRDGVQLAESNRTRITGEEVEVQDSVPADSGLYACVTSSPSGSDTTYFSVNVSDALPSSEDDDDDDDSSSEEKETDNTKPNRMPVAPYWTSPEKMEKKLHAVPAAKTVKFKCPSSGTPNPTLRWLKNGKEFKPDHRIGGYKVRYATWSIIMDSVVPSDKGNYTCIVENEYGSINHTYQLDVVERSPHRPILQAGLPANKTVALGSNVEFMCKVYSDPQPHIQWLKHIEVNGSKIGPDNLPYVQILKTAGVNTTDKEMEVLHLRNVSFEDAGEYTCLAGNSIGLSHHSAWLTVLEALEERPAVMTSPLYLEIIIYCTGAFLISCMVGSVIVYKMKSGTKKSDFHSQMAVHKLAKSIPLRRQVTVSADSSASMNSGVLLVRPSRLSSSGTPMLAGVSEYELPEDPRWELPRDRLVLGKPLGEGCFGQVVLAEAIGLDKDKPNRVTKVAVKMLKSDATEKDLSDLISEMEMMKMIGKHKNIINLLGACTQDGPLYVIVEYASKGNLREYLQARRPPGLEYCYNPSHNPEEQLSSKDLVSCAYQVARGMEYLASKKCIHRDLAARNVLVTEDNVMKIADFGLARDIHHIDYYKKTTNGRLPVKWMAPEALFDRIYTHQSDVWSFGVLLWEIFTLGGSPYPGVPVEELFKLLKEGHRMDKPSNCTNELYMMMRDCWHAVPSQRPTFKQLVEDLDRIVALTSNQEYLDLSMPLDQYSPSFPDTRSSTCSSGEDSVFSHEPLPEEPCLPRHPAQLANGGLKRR

FGFR3 = FGFR3 (UniProt P22607); assay: as above
Fer (mouse) = assay: as above
Fes = Fes (UniProt P07332); assay: as above
Sequence of Fes (P07332 whole entry, looked up): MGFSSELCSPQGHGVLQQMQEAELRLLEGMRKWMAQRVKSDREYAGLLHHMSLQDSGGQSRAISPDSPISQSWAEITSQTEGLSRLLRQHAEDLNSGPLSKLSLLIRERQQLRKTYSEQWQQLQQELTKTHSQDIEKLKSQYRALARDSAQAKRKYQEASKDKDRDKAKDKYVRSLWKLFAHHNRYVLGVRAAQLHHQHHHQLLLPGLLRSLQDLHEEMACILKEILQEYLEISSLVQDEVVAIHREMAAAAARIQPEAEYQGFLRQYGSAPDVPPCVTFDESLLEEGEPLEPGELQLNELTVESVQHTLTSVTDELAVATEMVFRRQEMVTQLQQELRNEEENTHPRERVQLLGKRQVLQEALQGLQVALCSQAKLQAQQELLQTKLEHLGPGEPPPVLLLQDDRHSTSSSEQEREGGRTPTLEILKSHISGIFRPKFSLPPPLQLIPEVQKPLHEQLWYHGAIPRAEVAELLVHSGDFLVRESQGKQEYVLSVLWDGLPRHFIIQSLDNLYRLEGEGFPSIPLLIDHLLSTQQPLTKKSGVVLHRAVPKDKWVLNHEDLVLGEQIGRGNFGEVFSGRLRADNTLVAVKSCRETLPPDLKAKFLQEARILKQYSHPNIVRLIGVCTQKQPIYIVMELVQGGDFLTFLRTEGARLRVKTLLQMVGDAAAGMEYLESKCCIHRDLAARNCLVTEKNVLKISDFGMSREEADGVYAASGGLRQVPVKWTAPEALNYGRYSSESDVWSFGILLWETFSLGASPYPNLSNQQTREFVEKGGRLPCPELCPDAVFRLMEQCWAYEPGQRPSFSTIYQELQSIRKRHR

Fyn = Fyn (UniProt P06241); assay: as above
Sequence of Fyn (P06241 whole entry, looked up): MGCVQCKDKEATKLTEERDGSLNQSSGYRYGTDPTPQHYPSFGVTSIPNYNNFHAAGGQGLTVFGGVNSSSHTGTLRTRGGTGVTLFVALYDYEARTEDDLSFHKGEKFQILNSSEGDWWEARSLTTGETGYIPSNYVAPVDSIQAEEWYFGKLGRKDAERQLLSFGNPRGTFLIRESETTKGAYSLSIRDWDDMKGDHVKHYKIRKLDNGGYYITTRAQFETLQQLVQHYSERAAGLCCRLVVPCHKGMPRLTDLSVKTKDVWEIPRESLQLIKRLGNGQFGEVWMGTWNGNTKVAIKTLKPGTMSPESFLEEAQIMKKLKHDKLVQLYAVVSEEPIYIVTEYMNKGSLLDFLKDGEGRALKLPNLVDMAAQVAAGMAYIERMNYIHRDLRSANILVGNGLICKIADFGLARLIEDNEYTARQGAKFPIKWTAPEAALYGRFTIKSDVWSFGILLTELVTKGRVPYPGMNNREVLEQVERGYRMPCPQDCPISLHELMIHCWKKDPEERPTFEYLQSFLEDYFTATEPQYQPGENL

Hck = Hck (UniProt P08631); assay: as above
Sequence of Hck (P08631 whole entry, looked up): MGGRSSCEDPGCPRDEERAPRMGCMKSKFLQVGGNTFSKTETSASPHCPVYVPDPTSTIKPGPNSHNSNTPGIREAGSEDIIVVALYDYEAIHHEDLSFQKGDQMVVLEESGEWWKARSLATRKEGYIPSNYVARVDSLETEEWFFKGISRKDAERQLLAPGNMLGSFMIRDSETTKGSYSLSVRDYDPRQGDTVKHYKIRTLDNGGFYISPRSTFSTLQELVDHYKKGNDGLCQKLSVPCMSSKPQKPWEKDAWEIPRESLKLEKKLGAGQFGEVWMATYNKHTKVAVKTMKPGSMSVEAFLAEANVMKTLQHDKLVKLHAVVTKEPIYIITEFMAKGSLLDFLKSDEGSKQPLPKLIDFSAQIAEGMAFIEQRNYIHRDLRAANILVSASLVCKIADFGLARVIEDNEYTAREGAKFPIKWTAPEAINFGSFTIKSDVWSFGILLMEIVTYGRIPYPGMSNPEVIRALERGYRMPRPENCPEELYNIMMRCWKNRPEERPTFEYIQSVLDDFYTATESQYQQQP

Jak2 = Jak2 (UniProt O60674); assay: as above
Sequence of Jak2 (O60674 whole entry, looked up): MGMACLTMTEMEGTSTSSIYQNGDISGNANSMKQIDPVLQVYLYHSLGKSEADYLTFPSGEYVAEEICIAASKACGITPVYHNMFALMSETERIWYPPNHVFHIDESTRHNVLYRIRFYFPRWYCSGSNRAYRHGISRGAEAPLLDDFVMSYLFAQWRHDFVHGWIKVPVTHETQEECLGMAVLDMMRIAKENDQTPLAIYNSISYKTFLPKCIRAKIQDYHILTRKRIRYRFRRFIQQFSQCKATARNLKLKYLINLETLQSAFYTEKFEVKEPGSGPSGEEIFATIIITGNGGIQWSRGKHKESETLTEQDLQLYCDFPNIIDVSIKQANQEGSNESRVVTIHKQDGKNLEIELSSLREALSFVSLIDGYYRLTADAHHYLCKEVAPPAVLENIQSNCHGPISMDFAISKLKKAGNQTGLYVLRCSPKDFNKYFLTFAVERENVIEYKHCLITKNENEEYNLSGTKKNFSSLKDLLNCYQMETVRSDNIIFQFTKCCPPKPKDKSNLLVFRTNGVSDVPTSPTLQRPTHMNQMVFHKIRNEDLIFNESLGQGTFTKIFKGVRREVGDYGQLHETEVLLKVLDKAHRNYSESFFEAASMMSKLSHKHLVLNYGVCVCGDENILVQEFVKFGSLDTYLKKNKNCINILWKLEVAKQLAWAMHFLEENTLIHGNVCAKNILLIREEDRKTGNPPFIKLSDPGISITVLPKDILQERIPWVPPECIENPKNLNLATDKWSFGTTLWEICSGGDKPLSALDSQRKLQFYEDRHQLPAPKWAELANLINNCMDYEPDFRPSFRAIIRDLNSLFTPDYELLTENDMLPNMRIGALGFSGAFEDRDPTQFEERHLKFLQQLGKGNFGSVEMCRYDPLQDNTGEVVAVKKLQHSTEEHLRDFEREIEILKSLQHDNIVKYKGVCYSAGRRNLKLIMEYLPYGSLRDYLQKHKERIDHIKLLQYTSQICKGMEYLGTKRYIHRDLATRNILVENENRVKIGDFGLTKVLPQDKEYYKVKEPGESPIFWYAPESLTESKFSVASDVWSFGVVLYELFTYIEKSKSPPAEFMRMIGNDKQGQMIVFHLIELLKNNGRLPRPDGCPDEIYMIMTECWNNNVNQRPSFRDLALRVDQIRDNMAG

MERTK = MERTK (UniProt Q12866); assay: as above
c-Abl (mouse) = assay: as above
c-Src = assay: as above
Grb2 SH2 = Grb2 SH2 (UniProt P62993); assay: SH2 binding enrichment of the phosphorylated peptide, bacterial display (enrichment ratio); higher = better substrate or ligand; peptides without Tyr show the background
SHP2-C SH2 = assay: as above
c-Src SH2 = assay: as above
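Wherever SH2 binding enrichment of the phosphorylated peptide, bacterial display is given: peptide library displayed on the E. coli surface as eCPX fusions, selected cells deep-sequenced, score is each peptide's frequency after selection divided by its frequency in the input.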
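Wherever phosphorylation enrichment, bacterial display is given: 11-residue human phosphosite peptides and single-mutation variants displayed on the E. coli surface, counted by deep sequencing, each peptide's frequency after selection divided by its frequency in the unselected input library; frequency after pTyr selection over input frequency; kinase dosed for 20-30% of maximal phosphorylation in three min.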

Sequence of EPHB2 (P29323 whole entry, looked up): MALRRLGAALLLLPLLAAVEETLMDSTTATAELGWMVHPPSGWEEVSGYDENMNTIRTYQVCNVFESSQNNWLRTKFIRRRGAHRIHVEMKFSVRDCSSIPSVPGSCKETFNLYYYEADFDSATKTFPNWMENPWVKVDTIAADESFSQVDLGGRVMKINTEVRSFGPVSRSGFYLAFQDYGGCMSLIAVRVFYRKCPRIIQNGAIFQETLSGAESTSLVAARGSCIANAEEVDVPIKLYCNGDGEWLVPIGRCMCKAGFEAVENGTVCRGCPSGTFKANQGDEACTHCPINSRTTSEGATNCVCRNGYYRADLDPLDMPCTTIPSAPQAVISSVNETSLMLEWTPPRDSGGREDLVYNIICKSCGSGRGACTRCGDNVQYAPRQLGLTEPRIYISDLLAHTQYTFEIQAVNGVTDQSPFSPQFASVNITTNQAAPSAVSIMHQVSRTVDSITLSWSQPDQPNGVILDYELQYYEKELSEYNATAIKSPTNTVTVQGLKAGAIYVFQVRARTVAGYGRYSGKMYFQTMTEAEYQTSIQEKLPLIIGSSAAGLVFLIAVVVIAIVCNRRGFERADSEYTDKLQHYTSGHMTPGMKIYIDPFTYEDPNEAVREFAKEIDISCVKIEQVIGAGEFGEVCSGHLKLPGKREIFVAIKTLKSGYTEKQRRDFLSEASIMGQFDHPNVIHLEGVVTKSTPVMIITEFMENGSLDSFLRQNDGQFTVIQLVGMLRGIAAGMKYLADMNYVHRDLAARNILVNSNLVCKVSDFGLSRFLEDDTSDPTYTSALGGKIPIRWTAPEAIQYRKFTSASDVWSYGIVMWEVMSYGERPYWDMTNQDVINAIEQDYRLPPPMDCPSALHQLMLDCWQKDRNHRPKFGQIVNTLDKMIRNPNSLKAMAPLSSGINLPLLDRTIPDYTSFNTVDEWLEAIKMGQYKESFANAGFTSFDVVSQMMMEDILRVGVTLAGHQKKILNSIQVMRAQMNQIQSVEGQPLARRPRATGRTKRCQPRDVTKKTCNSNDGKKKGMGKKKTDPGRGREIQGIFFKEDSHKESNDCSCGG

Row | Sequence | phosphorylation enrichment (AncSZ) | phosphorylation enrichment (EPHB1) | phosphorylation enrichment (EPHB2) | phosphorylation enrichment (FGFR1) | phosphorylation enrichment (FGFR3) | phosphorylation enrichment (Fer (mouse)) | phosphorylation enrichment (Fes) | phosphorylation enrichment (Fyn) | phosphorylation enrichment (Hck) | phosphorylation enrichment (Jak2) | phosphorylation enrichment (MERTK) | phosphorylation enrichment (c-Abl (mouse)) | phosphorylation enrichment (c-Src) | SH2 binding enrichment (Grb2 SH2) | SH2 binding enrichment (SHP2-C SH2) | SH2 binding enrichment (c-Src SH2)
1 | PKDSAYVTWEP | 1.66 | 1.03 | 0.798 | 2.14 | 1.45 | 2.5 | 1.4 | 2.17 | 2.38 | 1.36 | 1.39 | 1.16 | 2.02 | 0.938 | 0.675 | 0.487
2 | PKGTGCIKTEL [STAT1_Y701_Y701C] | 1.05 | 0.774 | 0.54 | 0.558 | 0.759 | 0.726 | 1.27 | 0.443 | 0.689 | 0.808 | 0.74 | 1.04 | 0.457 | 0.772 | 0.73 | 0.586
3 | PLDEEYFTLQI [TP53_Y327_G325E] | 2.96 | 1.02 | 0.888 | 4.65 | 4.54 | 0.691 | 2.25 | 1.91 | 1.2 | 2.57 | 0.941 | 1.13 | 2.69 | 0.891 | 1.12 | 0.551
4 | PLDGEYFTLRI [TP53_Y327_Q331R] | 2.77 | 1.04 | 1.04 | 6.1 | 5 | 0.971 | 2.19 | 2.55 | 1.76 | 2.88 | 0.45 | 1.93 | 3.13 | 0.767 | 0.539 | 0.596
5 | PLFKIYVAELI [MRPL28_Y230] | 2.14 | 0.919 | 0.772 | 0.806 | 1.54 | 0.978 | 2.35 | 0.658 | 0.738 | 1.71 | 0.707 | 0.947 | 0.791 | 0.82 | 0.634 | 0.574
6 | PLQKIYNYNVL [SLC4A1_Y553_T552I] | 0.585 | 0.773 | 1.05 | 0.514 | 1.04 | 0.582 | 1 | 0.409 | 0.564 | 1.05 | 1.09 | 0.748 | 1.32 | 0.807 | 0.638 | 1.54
7 | PMDTFYDSTRG [DYNC2H1_Y2231_YF] | 1.08 | 0.919 | 1.04 | 0.714 | 0.806 | 1.43 | 1.05 | 0.982 | 1.71 | 0.892 | 0.501 | 0.582 | 0.664 | 1.04 | 0.646 | 1.08
8 | PMFTKYGNGLL [RPGRIP1L_Y196_S199G] | 1.28 | 0.762 | 0.525 | 0.496 | 0.668 | 0.71 | 1.1 | 0.494 | 0.534 | 1.09 | 0.518 | 1.31 | 0.79 | 0.724 | 0.474 | 0.421
9 | PMQLPYDSRWE [PDGFRA_Y582] | 1.05 | 0.472 | 0.623 | 0.523 | 0.712 | 0.485 | 0.854 | 0.665 | 0.706 | 0.821 | 0.353 | 0.577 | 0.893 | 1.14 | 0.6 | 0.605
10 | PNRILYRDFRQ [MYH7_Y715_G716R] | 0.633 | 0.544 | 0.615 | 0.472 | 0.573 | 0.373 | 0.778 | 0.307 | 0.452 | 0.79 | 0.574 | 0.74 | 0.485 | 0.847 | 0.676 | 0.557
11 | PPAPRYHDSAV [LZTR1_Y119_H121D] | 0.73 | 0.658 | 0.476 | 0.532 | 0.711 | 0.448 | 0.877 | 0.861 | 0.684 | 0.979 | 0.741 | 0.743 | 0.728 | 0.729 | 0.508 | 0.551
12 | PPGRSYSPFDF [TNS1_Y793_YF] | 0.824 | 0.4 | 0.599 | 0.505 | 0.75 | 1.1 | 0.81 | 0.635 | 0.6 | 0.843 | 0.598 | 0.602 | 0.497 | 1.16 | 0.878 | 0.512
13 | PPKFFYTRKLL [CYBB_Y41] | 1.12 | 0.457 | 0.683 | 1.22 | 0.614 | 0.513 | 0.801 | 0.779 | 0.462 | 0.658 | 0.766 | 0.694 | 0.439 | 1.01 | 0.709 | 0.461
14 | PPPELYFVKVD [TERT_Y707] | 1.76 | 0.629 | 0.49 | 0.638 | 1.28 | 0.626 | 1.81 | 0.962 | 1.4 | 2.84 | 2.69 | 1.19 | 1.55 | 1.18 | 1.04 | 0.534
15 | PQAVTYAKVKH [LILRB4_Y360] | 0.405 | 0.421 | 0.286 | 0.398 | 0.334 | 0.424 | 0.515 | 0.294 | 0.509 | 0.577 | 0.339 | 0.573 | 0.708 | 0.759 | 82.1 | 2.6
16 | PQAVTYATVKH [LILRB4_Y360_K362T] | 0.655 | 0.735 | 0.615 | 0.423 | 0.607 | 0.624 | 0.776 | 1.72 | 2.92 | 0.882 | 0.543 | 0.856 | 2.83 | 0.851 | 85.4 | 3.11
